According to patent US20180362629A1 (ZOETIS BELGIUM S A, published 2018):
“And” between values parts separate entries of the source, which are not always exact repeats. Equal entries are not always repeated. Where two headings read alike, the source gives them in different places.

Experiments:
[1] = target: human β NGF (R&D Systems catalog #256-GF/CF) (human) (UniProt P01138); test: cell-based or functional assay
[2] = target: T1, recombinant canine β NGF (canine, UniProt Q29074 110-229 (pig entry)); test: SPR (Biacore), mAb captured on goat anti-mouse IgG Fc, canine NGF injected; Average
T1 construct: also called canine NGF
T1 chain: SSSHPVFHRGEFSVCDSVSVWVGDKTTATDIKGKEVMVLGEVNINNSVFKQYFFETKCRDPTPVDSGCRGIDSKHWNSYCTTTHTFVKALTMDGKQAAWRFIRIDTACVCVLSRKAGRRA
Method: (§1) A biomolecular protein interaction analysis was used to evaluate the binding kinetics of the interaction between the purified anti-NGF hybridoma antibodies and recombinant canine β NGF. The antibodies were captured using a goat anti-mouse IgG FC (10000 RU) surface which was directly immobilized to a CM5 chip using an amine coupling procedure according to the manufacturer's instructions (Biacore). A sample size of 5 μl of antibody at a concentration of 1 μg/ml was captured at 10 μl minute. Recombinant canine NGF was used as the antigen. Canine NGF was injected at 75 μl/min (concentration range: 5-0.039 nM) for mouse antibodies. The association rate was monitored for 3.3 minutes and the dissociation rate was monitored for 10 minutes. Aliquots of canine NGF were also simultaneously injected over a reference reaction CM surface to record any nonspecific binding background. The instrument sensitivity for on-rate is I×IO⁷, such that any on-rate that is faster than I×IO⁷ may not be accurately measured; the instrument sensitivity for off-rate is […], such that any off-rate that is slower than 1×10⁻⁶ may not be accurately measured. Therefore, an on-rate that is faster than 1×10⁷ is recorded as >1×10⁷ and an off-rate that is slower than 1×10⁻⁶ is recorded as <1×10⁻⁶.

[3] = target: T1, recombinant canine β NGF; test: SPR (Biacore), mAb captured on goat anti-mouse IgG Fc, canine NGF injected; Expt 1
Method: as §1

[4] = target: T1, recombinant canine β NGF; test: direct ELISA, canine NGF coated at 1 µg/ml, mAb at 0.4 µg/ml
Method: (§2) To determine if purified mouse anti-NGF mAbs bind to canine β NGF, ELISA plates were coated with 50 μl/well of canine NGF (Abbott Laboratories) at 1 μg/ml in PBS and incubated over night at 4° C. The plates were washed three times with PBS+Tween buffer. The plates were blocked with 200 μl/well of 2% milk in PBS for 1 hour at room temperature. The plates were washed three times as above. Purified antibodies were diluted to 0.4, 2, or 10 μg/ml. 50 μl of each concentration of purified antibody was added to the plates. The plates were incubated for 1 hour at room temperature. The plates were washed. 50 μl of a 5000-fold diluted goat anti-mouse IgG Fc-HRP (Thermo, catalog #31439) was added. The plates were incubated for 1 hour at room temperature. 50 μl of TMB (Invitrogen, catalog #00-2023) was added and the reaction was stopped using 2N H₂SO₄ (VWR, catalog # BDH3500-1). The absorbance at 450 nm was read on a Spectromax 2E plate reader (Molecular Devices). The results are shown in Table 9, and the numerical value indicates binding of mouse anti-NGF antibodies to canine β NGF.

[5] = target: T1, recombinant canine β NGF; test: cell-based or functional assay
[6] = target: T1, recombinant canine β NGF; test: direct ELISA, canine NGF coated at 1 µg/ml, mAb at 2 µg/ml
Method: as §2

[7] = target: T1, recombinant canine β NGF; test: direct ELISA, canine NGF coated at 1 µg/ml, mAb at 10 µg/ml
Method: as §2

[8] = target: T1, recombinant canine β NGF; test: SPR (Biacore), mAb captured on goat anti-mouse IgG Fc, canine NGF injected; Expt 2
Method: as §1

[9] = target: T1, recombinant canine β NGF; test: cell-based or functional assay
[10] = target: T1, recombinant canine β NGF; test: cell-based or functional assay
[11] = target: T1, recombinant canine β NGF; test: SPR (Biacore T100), antibody captured on goat anti-canine IgG, canine NGF injected
Method: Purified mouse/canine chimeric antibodies and caninized antibodies were analyzed for affinity to canine NGF using a Biacore T100 instrument. Goat anti Canine IgG (Southern Biotech) was immobilized at 5000-10000 RU on a CM5 chip using an amine coupling procedure according to the manufacturer's instructions (Biacore). […] The association rate was monitored for 5 min and the dissociation rate was monitored for 10-20 min. The chip surface was regenerated using 50-75 ul 10 mM glycine pH 1.5 at a flow rate of 50-100 ul/min. Data was analyzed using Biaevaluation T100 software version 2.0.2, software, GE Healthcare Life Sciences (Piscataway, N.J.). Overall affinity parameters established for mouse/canine chimeric antibodies is summarized in Table 22 and for caninized antibodies in Table 23. […] The overall KDs of the mouse/canine anti-NGF mAbs range from about 1300 pM to 1.6 pM. […] The overall KDs of the caninized anti-NGF mAbs range from about 42 pM to 1.2 pM.

[12] = target: T2, recombinant canine β NGF (canine, UniProt Q29074 110-229 (pig entry)); test: cell-based or functional assay
T2 chain: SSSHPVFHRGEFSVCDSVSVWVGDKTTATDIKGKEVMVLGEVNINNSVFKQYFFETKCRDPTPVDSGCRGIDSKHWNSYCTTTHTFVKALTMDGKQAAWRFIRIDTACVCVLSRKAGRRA

[13] = target: T3, biotinylated rat β NGF (rat, UniProt P25427 122-241, limits assumed, biotinylated); test: capture ELISA; supernatant 625-fold
T3 construct: also called Biotinylated Rat NGF; rat NGF
Method: (§3) The plates were washed three times with wash buffer. The plates were blocked with 200 μl of 2% milk and incubated for 1 hour at room temperature. The plates were washed as above. […] The positive control was crude sera (diluted 1:500 with PBS) isolated from a β NGF immunized mouse and the negative control was hybridoma supernatant derived from a mouse immunized with an antigen other than NGF. The plates were washed and then 50 μl of biotinylated human or rat β NGF at 50 ng/ml was added and incubated for 1 hour at room temperature. The plates were washed. […] The plates were incubated for 30 minutes at room temperature. The plates were washed and then TMB substrate (Invitrogen, catalog #00-2023) was added. The reaction was stopped using 2N H₂SO₄ (VWR, catalog # BDH3500-1). The absorbance at 450 nm was read on a Spectromax 2E plate reader (Molecular Devices); these absorbance readings are shown in Tables 1 and 2. The numerical value indicates binding of mouse anti-NGF antibodies to biotinylated human or rat β NGF.

[14] = target: T4, biotinylated human β NGF (human, UniProt P01138 122-241, biotinylated); test: capture ELISA; supernatant 625-fold
T4 construct: also called Biotinylated Human NGF; human NGF
Method: as §3

[15] = target: T3, biotinylated rat β NGF; test: capture ELISA; supernatant 5-fold
Method: as §3

[16] = target: T4, biotinylated human β NGF; test: capture ELISA; supernatant 5-fold
Method: as §3

[17] = target: T3, biotinylated rat β NGF; test: capture ELISA; supernatant 125-fold
Method: as §3

[18] = target: T4, biotinylated human β NGF; test: capture ELISA; supernatant 125-fold
Method: as §3

[19] = target: T3, biotinylated rat β NGF; test: capture ELISA; supernatant 25-fold
Method: as §3

[20] = target: T4, biotinylated human β NGF; test: capture ELISA; supernatant 25-fold
Method: as §3

human β NGF (R&D Systems catalog #256-GF/CF) (human), sequence (P01138 122-241 limits assumed): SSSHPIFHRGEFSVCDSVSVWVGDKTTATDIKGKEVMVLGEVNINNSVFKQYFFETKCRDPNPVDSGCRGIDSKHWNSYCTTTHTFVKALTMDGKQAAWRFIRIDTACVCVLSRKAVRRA
T4 sequence (P01138 122-241 limits assumed): as above
T3 sequence (P25427 122-241 limits assumed): as the sequence (P01138 122-241 limits assumed) above, with S3T, I6V, R9M, M37T, D60A, D65E, M92T, G94D, V117A, A120G counted along it

Q: What does the source list for Unrelated hybridoma (antibody)?
A: PathHunter % of max signal, supernatant 1000-fold [1]: 136% and 144%; PathHunter % of max signal, supernatant 5000-fold [1]: 126% and 132%; PathHunter % of max signal, supernatant 10000-fold [1]: 138% and 137%

B1: PR-1254981 (antibody, mouse IgG1, V domains shown)
VH: EVQLVESGGGAVKPGGSLTLSCAASGFTFSNHYMYWVRQTPEKRLEWVASISDGGAYTFYPDTVKGRFTISRDNVNNNLYLQMRHLKSEDTAMYYCTREESANNGFAFWGQGTLVTVSA
VL: DVLMTQTPLSLPVSLGDQASISCRSSQSILHSNGNTYLEWYLQKPGQSPNLLIYRVSNRFSGVPDRFSGSGSGTDFTLKISRVEAEDLGVYYCFQGAHVPFTFGSGTKLEIKR
notes: also called 14A9; ML130-14A9.5B12
Q: B1 was tested. Which Kd [2] did it give?
A: The Kd was 0.0167 nM.

Q: What about the koff [2] of the same molecule?
A: Its koff is 0.000134 s⁻¹.

Q: And the kon [2]?
A: The kon was 8.08e+06 M⁻¹ s⁻¹.

Q: And the Kd [3]?
A: Its Kd is 0.0147 nM.

Q: What about the koff [3] of the same molecule?
A: The koff was 0.000127 s⁻¹.

Q: What about the kon [3] of the same molecule?
A: The kon was 8.67e+06 M⁻¹ s⁻¹.

Q: What about the “absorbance at 450 nm” value [4] of the same molecule?
A: Its value is 0.229 A450.

Q: And the “PathHunter IC50 (441 pM canine NGF)” value [5]?
A: Its value is 0.279 nM.

Q: And the “SureFire pERK IC50 (128 pM canine β NGF)” value [5]?
A: Its value is 0.0214 nM.

Q: What about the “absorbance at 450 nm” value [6] of the same molecule?
A: Its value is 0.458 A450.

Q: And the “absorbance at 450 nm” value [7]?
A: The value was 0.61 A450.

Q: And the Kd [8]?
A: Its Kd is 0.0187 nM.

Q: What about the koff [8] of the same molecule?
A: The koff was 0.00014 s⁻¹.

Q: And the kon [8]?
A: The kon was 7.48e+06 M⁻¹ s⁻¹.

Q: What about the “IC50, canine NGF-induced TF-1 cell proliferation (70 pM canine NGF)” value [9] of the same molecule?
A: Its value is 0.046 nM.

B2: Mu81 Canine IgG1/k Chimera (antibody, V domains shown)
VH: EVQLVESGGGAVKPGGSLTLSCAASGFTFSNHYMYWVRQTPEKRLEWVASISDGGAYTFYPDTVKGRFTISRDNVNNNLYLQMRHLKSEDTAMYYCTREESANNGFAFWGQGTLVTVSA
VL: DVLMTQTPLSLPVSLGDQASISCRSSQSILHSNGNTYLEWYLQKPGQSPNLLIYRVSNRFSGVPDRFSGSGSGTDFTLKISRVEAEDLGVYYCFQGAHVPFTFGSGTKLEIKR
notes: also called PR-1290657; lot 1778832
Q: For B2, which “IC50, canine NGF-induced TF-1 cell proliferation (70 pM canine NGF)” value [10] is on record?
A: Its value is 0.012 nM.

Q: What about the Kd [11] of the same molecule?
A: Its Kd is 0.082 nM.

Q: And the koff [11]?
A: Its koff is 0.00035 s⁻¹.

B3: PR-1254980 (antibody, mouse IgG1, V domains shown)
VH: EVQLQQSGAELVKPGASVKLSCTASGFNIKDTYIYWVKQRPEQGLEWIGRIDPANGNTIYASKFQGKATITADTSSNTAYMQLSSLTSGDTAVYYCAGYGYYAYWGQGTTLTVSS
VL: DVVLTQTPLSLPVNIGDQASISCKSTKSLLNGDGFTYLDWYLQKPGQSPQLLIYLVSNRFSGVPDRFSGSGSGTDFTLKISRVEAEDLGVYYCFESNYLFTFGSGTKLEMKR
notes: also called 23F1; ML129-23F1.4G3
Q: With B3 as the molecule, how does the “PathHunter IC50 (441 pM canine NGF)” value [12] read?
A: The value was < 1 nM.

Q: What about the “SureFire cellular pERK IC50 (128 pM canine NGF)” value [12] of the same molecule?
A: Its value is < 1 nM.

Q: What about the “absorbance at 450 nm” value [13] of the same molecule?
A: The value was 0.528.

Q: What about the “absorbance at 450 nm” value [14] of the same molecule?
A: The value was 0.696.

Q: What about the “absorbance at 450 nm” value [15] of the same molecule?
A: The value was 0.764.

Q: What about the “absorbance at 450 nm” value [16] of the same molecule?
A: The value was 1.14.

Q: And the “absorbance at 450 nm” value [17]?
A: Its value is 0.737.

Q: And the “absorbance at 450 nm” value [18]?
A: Its value is 0.979.

Q: And the “absorbance at 450 nm” value [19]?
A: The value was 0.767.

Q: And the “absorbance at 450 nm” value [20]?
A: Its value is 1.17.
